According to US20260209331A1 (published 2026):

T1: P19 subunit of human IL-23 (IL23p19) (UniProt Q9NPF7 20-189)
T1 chain: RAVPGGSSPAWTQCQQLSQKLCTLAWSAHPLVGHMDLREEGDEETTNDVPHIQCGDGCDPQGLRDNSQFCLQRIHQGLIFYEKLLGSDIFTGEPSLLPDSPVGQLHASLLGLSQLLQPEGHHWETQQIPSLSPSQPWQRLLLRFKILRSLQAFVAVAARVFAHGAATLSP

B1: BsAb #C8 (antibody)
chain 1: not shown
chain 2: EIVLTQSPATLSLSPGERATLSCRASQSVYSYLAWYQQKPGQAPRLLIYDASNRATGIPARFSGSGSGTDFTLTISSLEPEDFAVYYCQQRSNWPPFTFGPGTKVDIKGGGGSGGGGSGGGGSDIQMTQSPSSLSASVGDRVTITCRTSENIYSYLAWYQQKPGKAPKLLIYNAKTLAEGVPSRFSGSGSGTDFTLTISSLQPEDFATYYCQHHYGIPFTFGQGTKVEIKRTVAAPSVFIFPPSDEQLKSGTASVVCLLNNFYPREAKVQWKVDNALQSGNSQESVTEQDSKDSTYSLSSTLTLSKADYEKHKVYACEVTHQGLSSPVTKSFNRGEC
B2: BsAb #A6 (antibody)
chain 1: EIVLTQSPATLSLSPGERATLSCRASQSVYSYLAWYQQKPGQAPRLLIYDASNRATGIPARFSGSGSGTDFTLTISSLEPEDFAVYYCQQRSNWPPFTFGPGTKVDIKASTKGPSVFPLAPSSKSTSGGTAALGCLVKDYFPEPVTVSWNSGALTSGVHTFPAVLQSSGLYSLSSVVTVPSSSLGTQTYICNVNHKPSNTKVDKKV
chain 2: not shown
chain 3: not shown
chain 4: not shown
B3: BsAb #D3 (antibody)
chain 1: not shown
chain 2: DIQMTQSPSSLSASVGDRVTITCRTSENIYSYLAWYQQKPGKAPKLLIYNAKTLAEGVPSRFSGSGSGTDFTLTISSLQPEDFATYYCQHHYGIPFTFGQGTKVEIKRTVAAPSVFIFPPSDEQLKSGTASVVCLLNNFYPREAKVQWKVDNALQSGNSQESVTEQDSKDSTYSLSSTLTLSKADYEKHKVYACEVTHQGLSSPVTKSFNRGEC
B4: BsAb #A7 (antibody)
chain 1: not shown
chain 2: B3 chain 2
chain 3: not shown
chain 4: not shown
B5: BsAb #A8 (antibody)
chain 1: B2 chain 1
chain 2: B3 chain 2
chain 3: not shown
chain 4: not shown
B6: BsAb #B8 (antibody)
chain 1: not shown
chain 2: B3 chain 2
B7: BsAb #D4 (antibody)
chain 1: not shown
chain 2: B3 chain 2
B8: BsAb #B7 (antibody)
chain 1: not shown
chain 2: B3 chain 2

Biological target: T1, P19 subunit of human IL-23 (IL23p19)
Assay: SPR

Kd [nM]	Binder
1.66	B1
0.04	B2
0.2	B3
0.08	B4
0.08	B5
0.07	B6
0.11	B7
0.1	B8

biological target: T2, human TNF alpha (TNFα) (UniProt P01375 77-233); assay: SPR
T2 sequence (P01375 77-233): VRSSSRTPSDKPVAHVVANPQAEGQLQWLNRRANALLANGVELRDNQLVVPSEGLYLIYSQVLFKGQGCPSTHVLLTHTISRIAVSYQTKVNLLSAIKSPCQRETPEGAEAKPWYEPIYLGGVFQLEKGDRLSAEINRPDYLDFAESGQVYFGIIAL

Kd [nM]	Binder
0.1	B1
0.39	B2
0.16	B3
0.58	B4
1.09	B5
0.42	B6
0.49	B7
0.87	B8

biological target: T2, human TNF alpha (TNFα); assay: SPR; pre-bound with IL23p19

Kd [nM]	Binder
0.12	B3
0.41	B6
0.41	B7
0.93	B8
